This assay addresses T1, CHORDII domain of cress (Arabidopsis thaliana) Rar1 (Arabidopsis thaliana, UniProt Q9SE33 149-221).
T1 chain: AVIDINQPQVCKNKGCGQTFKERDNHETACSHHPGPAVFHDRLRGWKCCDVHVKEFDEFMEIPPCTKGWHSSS
The assay can be described thus: ITC. (In general: In ITC the heat of successive injections is recorded.)

B1: N-terminal domain of barley (Hordeum vulgare) Hsp90 (domain or fragment)
chain: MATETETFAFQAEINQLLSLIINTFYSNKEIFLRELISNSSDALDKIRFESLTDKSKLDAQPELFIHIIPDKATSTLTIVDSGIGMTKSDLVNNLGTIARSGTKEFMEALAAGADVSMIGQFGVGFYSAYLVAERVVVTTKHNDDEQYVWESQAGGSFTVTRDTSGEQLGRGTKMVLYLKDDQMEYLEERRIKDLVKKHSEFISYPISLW
By Kd is commonly meant the equilibrium constant for the complex coming apart. Regarding B1, the Kd came out at 22.3 µM.

The values are drawn from PMC2935968 (2010).
